Test results: the supplement of paper PMC9732359
± gives the uncertainty stated by the source.

Test: protein stability index of a GFP-peptide fusion (yeast GPS) (PSI 1-4); higher = more stable; sorted into four equal gates, so the index is relative within each strain
Conditions: san1∆
Method in brief: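 Tiled 17-residue yeast protein peptides were fused downstream of GFP in a plasmid that also expresses Cherry, and the pooled library was carried in yeast. Mid-log cultures in leucine-free medium were sorted into four equal gates by GFP/Cherry fluorescence ratio, and plasmids from each gate were PCR-amplified and Illumina-sequenced, with reads assigned to strains by barcodes. The protein stability index for each peptide was each gate's read frequency times its gate number, summed.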
With LDLANSGDESNVISSKD [YDL116W/NUP84] the protein stability index was 3.25 ± 0.051. Work on LDLIPHSSSVFKGTDFV [SRB4] yielded a protein stability index of 2.89 ± 0.068. LDMELAELDPSLRTPIA [SEC65] gave a protein stability index of 3.08 ± 0.081. In the case of LDNFETKTEALLSDVVS [YJL041W/NSP1], the protein stability index is reported as 2.35 ± 0.063. Work on LDPNLITLALSSNPNSS [SRB4] yielded a protein stability index of 2.4 ± 0.084. LDPTDDEGHVLKLENLH [SIN4] gave a protein stability index of 3.12 ± 0.13. Sequence LDQTKDTRITHLLRQTN [SNF2] has a protein stability index of 1.54 ± 0.061. LDSDSENDLSFALMRYY [RRI2] showed a protein stability index of 2.85 ± 0.057. With LEDGDVVLFNRQPSLHR [RPO31] the protein stability index was 2.47 ± 0.072. For LEDKLRAVLTPLITRHC [RRP46], the protein stability index was 2.33 ± 0.064. Work on LEERFDPKSPTKRSIAI [YMR129W/POM152] yielded a protein stability index of 2.9 ± 0.037. In the case of LEETRTTIGDTTDKNTT [BRN1], the protein stability index is reported as 3.04 ± 0.055. With LEFSIYHRLSNKDMIKN [CSN12] the protein stability index was 2.36 ± 0.18. With LEGKGSLEEIIAEGQKK [RPP2B] the protein stability index was 3.1 ± 0.076. LEHIDSKSEFAHRIMLT [FAS2] showed a protein stability index of 2.72 ± 0.075. In the case of LEHPYGKEVEVLMETKN [SNU114], the protein stability index is reported as 2 ± 0.1. With LEIMQLVCGNDSSYQDI [RET1] the protein stability index was 3.18 ± 0.081. For LEIVYGYALRDVQARRQ [RPP1], the protein stability index was 2.36 ± 0.13. LEKGNNPSVKQGEVGAV [SWP82] gave a protein stability index of 3.44 ± 0.052. LEKKFPDRHVIFLAERR [RPS7B] showed a protein stability index of 2.91 ± 0.046. LEKKFQDRHVIFLAERR [RPS7A] gave a protein stability index of 2.86 ± 0.27. Work on LEPDYQAPFSTSTKDKN [MED1] yielded a protein stability index of 2.81 ± 0.084. LERRELEGTRVSLEERT [SMC4] showed a protein stability index of 3.29 ± 0.063. For LERVKRIMEKSVILSVI [YML031W/NDC1], the protein stability index was 1.98 ± 0.096. Work on LESVGIEIEDEKVSSVL [RPP2A] yielded a protein stability index of 2.77 ± 0.12. LEVGKNNFCALYNLSNP [RPN14] showed a protein stability index of 1.43 ± 0.15. In the case of LEVVQYIEDGRNPDIYT [NUT2], the protein stability index is reported as 3.15 ± 0.042. LEYWCNPPYSQCIVYPN [SOH1] gave a protein stability index of 2.05 ± 0.054. For LFDEFGNLIGVDPFDSD [SNU114], the protein stability index was 2.87 ± 0.069. Sequence LFEIYRDLGDDRVFNVP [YJR042W/NUP85] has a protein stability index of 2.75 ± 0.11. With LFEVNPSQTLFSISYKP [SRP21] the protein stability index was 2.28 ± 0.091. For LFKPLNKTLTLDLKECY [ARP7], the protein stability index was 1.89 ± 0.15. In the case of LFLEPSWSSSAAVIMRC [PCI8], the protein stability index is reported as 1.58 ± 0.16. In the case of LFLNTGCLSVLYQSKGR [SRP68], the protein stability index is reported as 1.48 ± 0.12. With LFQENDDDDDDDDEVDY [DSN1] the protein stability index was 2.97 ± 0.091. In the case of LFVGTDRQLHEISTSKK [RPN14], the protein stability index is reported as 2.9 ± 0.092. Sequence LGASFGQQQQQSQTNAF [YGL172W/NUP49] has a protein stability index of 2.07 ± 0.1. With LGEIPNPMKKHKPNEGR [SIR4] the protein stability index was 2.8 ± 0.062. For LGFVLLRDYTTVPRIVQ [RPN2], the protein stability index was 1.35 ± 0.076. Sequence LGKLQDVFNLLPNLGTP [RPN8] has a protein stability index of 2.43 ± 0.085. Sequence LGKYDLTVIEKLDSKKI [SRP68] has a protein stability index of 3.53 ± 0.12. Sequence LGMLDDNKMDSVKEDVK [SMC4] has a protein stability index of 2.09 ± 0.24. Sequence LGMMYEQKLIDQHVINI [YCS4] has a protein stability index of 2.21 ± 0.064. In the case of LGQIGACHVEVPYVLMG [COB], the protein stability index is reported as 1.89 ± 0.12. With LGRLSVRELVEKIDGMD [RPC82] the protein stability index was 3.23 ± 0.11. In the case of LGSDSSDGHNSEKKDTD [SRB4], the protein stability index is reported as 1.59 ± 0.27. With LGTTEGDIKVLDSNFNL [RPN14] the protein stability index was 3.03 ± 0.078. In the case of LGYNFDGSAIEDDDIRS [SNF5], the protein stability index is reported as 3.35 ± 0.068. LHIHLNQILQTEIENYL [YDL116W/NUP84] gave a protein stability index of 2.03 ± 0.075. Sequence LHLDYNFNLKPTKTLTT [PRP8] has a protein stability index of 2.68 ± 0.039. Work on LHTARKILVLTGAGVST [SIR2] yielded a protein stability index of 2.33 ± 0.082. LHVPNLQPPKTSSRGRD [SMC4] showed a protein stability index of 2.29 ± 0.054. For LIAHQRSAWNNNNDNDA [GRR1], the protein stability index was 2.62 ± 0.05. For LIDSLENHLLVMKQVET [PRP28], the protein stability index was 1.69 ± 0.19. LIECLLSKVAALSGNEG [RPB2] showed a protein stability index of 1.89 ± 0.11. In the case of LIELKSDLLVAPPLENE [YML103C/NUP188], the protein stability index is reported as 2.31 ± 0.077. Work on LIEYMENDAKKSKGDVD [NUT1] yielded a protein stability index of 3.1 ± 0.08. For LIGAATKFKGGKRQLMK [SEC65], the protein stability index was 2.14 ± 0.11. LILILVISFGQPKLNPM [SWI1] showed a protein stability index of 1.78 ± 0.092. Sequence LIMALLQFRPAPMYILD [SMC2] has a protein stability index of 1.32 ± 0.26. Work on LIQKGYLQRGDDGESYA [CDC53] yielded a protein stability index of 3.34 ± 0.065. For LISLKLLTFEVTQNVLG [SRB8], the protein stability index was 1.28 ± 0.25. With LITQLDGFDPRGNIKVM [RPT1] the protein stability index was 3.15 ± 0.09. Sequence LITTNSVEEVILERAYK [SNF2] has a protein stability index of 2.18 ± 0.09. Sequence LIVDVKQQGVGLPTDAY [RPN8] has a protein stability index of 1.28 ± 0.26. With LKAAFVAIGNTYGFLTP [RPS2] the protein stability index was 2.07 ± 0.095. With LKDIEARIKEKAGVKES [RPT1] the protein stability index was 3.22 ± 0.11. LKENTYVMERPKNVPTS [YDL116W/NUP84] gave a protein stability index of 2.79 ± 0.15. In the case of LKESIKNSTSSMTAVPK [RPN1], the protein stability index is reported as 3.14 ± 0.1. LKGEIEDYPMSSEIKIY [SIR4] showed a protein stability index of 3.25 ± 0.18. LKHKSICSCVNRGVKLE [RPP1] showed a protein stability index of 2.57 ± 0.068. Sequence LKHLEEMGKLRERDITS [RRI2] has a protein stability index of 2.55 ± 0.15. In the case of LKHTDYWYEQDSAKEWP [RPB3], the protein stability index is reported as 2.36 ± 0.21. Sequence LKIFLYLESLFAKQVDV [IRR1] has a protein stability index of 2.33 ± 0.1. Work on LKIFQEQSLEVFIFPTS [SRB8] yielded a protein stability index of 2.29 ± 0.056. In the case of LKISLIQIFRAHLWQKI [PRP8], the protein stability index is reported as 1.13 ± 0.13. With LKKFLQEKMDPNNSRDD [IRR1] the protein stability index was 3.19 ± 0.064. LKKKYQIILDRFAPDNQ [SIR3] gave a protein stability index of 1.68 ± 0.13. LKKSEEIINNKTSSQTS [YMR153W/NUP53] showed a protein stability index of 3.03 ± 0.13. With LKLEKLNTNRTFAQEKL [SMC3] the protein stability index was 2.83 ± 0.098. LKLLKENIIQMEMIENR [FAS1] gave a protein stability index of 1.32 ± 0.12. LKNFLSYESLKKRKIHN [MCD1] showed a protein stability index of 2.12 ± 0.048. For LKNIMKVSDPYVPTRNT [RPN4], the protein stability index was 2.78 ± 0.071. Work on LKNKYESYDAALSLHRE [FAS2] yielded a protein stability index of 3.083 ± 0.014. Sequence LKNSIMSFIFPSYAERQ [YML031W/NDC1] has a protein stability index of 2.38 ± 0.079. With LKQPPFQITLSSDDLQN [SSN8] the protein stability index was 2.34 ± 0.064. Sequence LKRRQVIEQCYLKFIPL [SRB8] has a protein stability index of 1.52 ± 0.082. Work on LKSAENSGKQQYYRGLP [SWP82] yielded a protein stability index of 2.25 ± 0.21. With LKTNFETEWNLQTLAAD [RPB11] the protein stability index was 2.53 ± 0.079. In the case of LKVDPDMLTWVDSNLPD [RPC40], the protein stability index is reported as 2.54 ± 0.16. LKVNVTLDNPLLVDKDA [YJL039C/NUP192] showed a protein stability index of 3 ± 0.041. Work on LKWKKGIRGKLVTIEGA [SMC1] yielded a protein stability index of 3.31 ± 0.12. Sequence LLAEEEELILPNTKDAM [PRP8] has a protein stability index of 3.36 ± 0.063. LLAHKVADEEANIELTW [RPC37] gave a protein stability index of 1.59 ± 0.14. Work on LLARVIQMNNSLQNNLQ [SNF11] yielded a protein stability index of 2.36 ± 0.084. Work on LLDFNTALKQYEKELMG [RPN6] yielded a protein stability index of 3.32 ± 0.25. LLEISCKQWEISNMLKK [CSI1] showed a protein stability index of 1.75 ± 0.077. LLEQKKSIINSQRPGAR [ITC1] gave a protein stability index of 2.47 ± 0.23. LLETITYVLNTWTNSKI [YML103C/NUP188] gave a protein stability index of 2.14 ± 0.066.
